The values below come from patent publication US20240076389A1 (NATIONAL RESEARCH COUNCIL OF CANADA, published 2024).

T1: human AXL expressed on the cell surface of tumor cell lines (human, UniProt P30530 26-894)
T1 construct: whole, on cells; also called cell surface-expressed AXL; cell-based AXL
T1 sequence (looked up): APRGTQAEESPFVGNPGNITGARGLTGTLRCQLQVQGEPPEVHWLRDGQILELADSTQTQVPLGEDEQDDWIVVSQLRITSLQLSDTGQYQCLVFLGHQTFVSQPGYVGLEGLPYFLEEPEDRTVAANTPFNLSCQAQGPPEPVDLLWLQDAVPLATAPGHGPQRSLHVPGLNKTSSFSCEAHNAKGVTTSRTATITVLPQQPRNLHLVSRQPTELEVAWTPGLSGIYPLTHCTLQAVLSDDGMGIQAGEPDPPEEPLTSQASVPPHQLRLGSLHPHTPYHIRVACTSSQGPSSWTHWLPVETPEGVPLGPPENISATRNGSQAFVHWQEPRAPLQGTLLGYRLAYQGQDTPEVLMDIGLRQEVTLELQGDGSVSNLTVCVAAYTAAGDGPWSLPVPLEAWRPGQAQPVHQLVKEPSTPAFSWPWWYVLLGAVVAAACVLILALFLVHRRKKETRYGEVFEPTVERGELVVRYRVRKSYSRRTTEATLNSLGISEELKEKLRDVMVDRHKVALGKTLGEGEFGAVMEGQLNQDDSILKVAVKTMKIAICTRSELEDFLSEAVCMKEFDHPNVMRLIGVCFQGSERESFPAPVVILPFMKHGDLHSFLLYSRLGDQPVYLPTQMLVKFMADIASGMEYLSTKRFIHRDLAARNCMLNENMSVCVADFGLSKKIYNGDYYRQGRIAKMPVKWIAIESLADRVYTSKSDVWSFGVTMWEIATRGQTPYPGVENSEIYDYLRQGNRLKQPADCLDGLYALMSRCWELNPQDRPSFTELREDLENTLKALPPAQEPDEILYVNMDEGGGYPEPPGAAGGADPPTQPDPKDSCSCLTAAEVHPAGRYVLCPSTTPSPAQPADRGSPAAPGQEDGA

T2: recombinant human AXL extracellular domain, C-terminally His8-tagged (rhAXL-ECD) (human, UniProt P30530 26-451)
T2 construct: Made in CHO cells; also called (rh)AXL-ECD His8; human AXL ECD
T2 sequence: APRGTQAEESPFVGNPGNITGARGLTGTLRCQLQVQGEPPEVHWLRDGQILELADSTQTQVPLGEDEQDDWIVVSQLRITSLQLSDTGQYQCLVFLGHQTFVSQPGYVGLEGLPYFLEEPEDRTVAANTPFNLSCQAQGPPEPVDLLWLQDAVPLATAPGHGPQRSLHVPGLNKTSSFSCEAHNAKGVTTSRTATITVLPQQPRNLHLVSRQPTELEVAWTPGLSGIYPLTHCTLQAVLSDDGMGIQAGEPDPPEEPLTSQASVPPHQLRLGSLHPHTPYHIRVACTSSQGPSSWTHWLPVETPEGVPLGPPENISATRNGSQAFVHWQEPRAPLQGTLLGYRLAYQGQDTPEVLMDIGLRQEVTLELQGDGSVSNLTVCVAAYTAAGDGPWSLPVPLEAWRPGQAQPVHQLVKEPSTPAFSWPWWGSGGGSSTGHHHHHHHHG

T3: rhTyro-3 (human, UniProt Q06418 41-429)
T3 construct: extracellular domain
T3 sequence (looked up): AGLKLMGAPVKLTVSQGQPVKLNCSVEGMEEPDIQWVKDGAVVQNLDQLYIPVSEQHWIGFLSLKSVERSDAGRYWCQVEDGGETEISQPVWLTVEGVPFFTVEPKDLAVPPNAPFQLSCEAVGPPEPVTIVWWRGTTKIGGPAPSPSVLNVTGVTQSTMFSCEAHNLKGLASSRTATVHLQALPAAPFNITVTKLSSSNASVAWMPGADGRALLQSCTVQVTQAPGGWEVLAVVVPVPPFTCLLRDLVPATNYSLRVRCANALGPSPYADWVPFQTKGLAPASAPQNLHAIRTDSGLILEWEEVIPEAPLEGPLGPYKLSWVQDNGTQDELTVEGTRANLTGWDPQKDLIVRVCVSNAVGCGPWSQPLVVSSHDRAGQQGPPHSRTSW

B1: F111-3C8 (antibody, V domains shown)
VH: QVQLQQPGAELGKPGTSVKLSCKASGYTFTSYWMHWVKRVPGQGLEWIGNINPNSTSADYNEKFKRKATLTVDKSSSTAYMQLSTLTSEDSAVYYCTRPLMGPYWYFDVWGTGTTVTVSS
VL: QIVLTQSPAIMSASPGEKVTISCSASSSVSYMYWYQQKPGSSPKPWIYRTSNLASGVPARFSGSGSGTSYSLTISSMEAEDAATYYCQQYHNYPPTFGGGTKLEIK
notes: also called F111-3C8-2
B2: F111-5E9 (antibody, V domains shown)
VH: QIQLVQSGPELKKPGETVKISCKASGYTFTKYGMNWVKQAPGKGLKWMGWINTYTGEPTYADDFKGRFAFSLETSASTAYLQINNLTTEDMVTYFCAKGGYYSNPIYPMDYWGQGTSVTVSS
VL: DIQMTQTTSSLSASLGDRVTISCRASQDINNYLNWYQQKPDGTVKLLIYYISRLHSGVPSRFSGSGSGTDYSLTISNLELEDVATYFCQQGNTLPFTFGSGTKLEIK
notes: also called F111-5E9-2; mAb 5E9
B3: F107-8D12 (antibody, V domains shown)
VH: QVQLQQPGAELVKPGASVQLSCKASGYTFISFWINWVKQRPGQGLEWMGNIFPGSSSTNYNEKFKSKATLTVDKSSSTAYMQLSSLTSEDSAVYFCARDYYGGSPDYWGQGTTLTVSS
VL: DIVMSQSPSSLAVSAGERVTMSCKSSQSLLNTRTRKNYLAWYQQKPGQSPKLLIYWASTRESGVPDRFTGSGSGTDFTLTISSVQAEDLAVYYCKQSYNLWTFGGGTKLEIK
notes: also called F107-8D12-2; mAb 8D12
B4: F107-7H5 (antibody, V domains shown)
VH: QVQLQQPGAELVKPGASVKLSCKASGYTFTSYWINWVKQRPGQGLEWIGNIYPDSSSTNYNEKFKSKATLTVDKSSTTAYIQFSSLTSEDSAVYYCTRDTYGGSPDYWGQGTTLTVSS
VL: B3 VL with R18K, T32S, N37I, E61Q
notes: also called F107-7H5-2; mAb 7H5
B5: F107-10G1 (antibody, V domains shown)
VH: EVNLVESGGGVVKPGASLKLSCEASGFTFSNYGMSWVRQTSDKRLEWVASISGGGGRTYYLDNVKGRFIISRENAKNTLYLQMSSLKSEDTALFYCARGARASYFAMDYWGQGSSVTVSS
VL: VIVMTQSHKFMSTSVGDRVSITCKASQDVTTAVAWYQQKPGQSPKLLIYWASTRHTGVPDRFTGSGSGTDYSLTISNVQTEDLAFYYCQQHFTTPLTFGAGTKLELK
notes: also called F107-10G1-3

Numbering of substitutions follows the chain as printed.

In the first assay the target is T1, human AXL expressed on the cell surface …. Briefly: flow cytometry on H292 cells, one site-specific binding with Hill slope. On the procedure:
Detection of antibody binding to surface AXL by flow cytometry. Prior to analysis, cells were plated such that they were not more than 80% confluent on the day of analysis. Cells were washed in PBS and harvested by the addition of cell dissociation buffer (Sigma). A cell suspension containing 2.5×10⁵ cells (in 500 μl corresponding cell culture media) was incubated with various concentrations (0.01-10 nM) of anti-AXL antibodies for 2 h at 4° C. (to prevent internalization). Following one wash with cell culture media, primary antibody was incubated with 2 μg DYLIGHT™ 488 conjugated AffiniPure goat anti-mouse IgG Alexa 488 secondary antibody (Jackson ImmunoResearch) in 100 μl of media for 1 h at 4° C. Prior to analysis, cell pellets were re-suspended in 300-500 μl media and filtered through a 50 μm nylon mesh filter to remove cell aggregates. Flow cytometry analyses were performed on 10,000 viable cells gated on forward scattering, side scattering parameters and propidium iodide dye exclusion using a BD LSRII flow Cytometer (Becton-Dickinson Biosciences, CA, USA) and a standard filter set using BD FACSDiva™ acquisition software, according to manufacturer's instructions.
Specific detection of antibody binding was calculated as the mean fluorescent intensity of binding to each primary antibody after background level subtraction of the mean fluorescent intensity of binding in the absence of primary antibody (but containing detection antibody). Binding parameters Bmax, (maximum fluorescence signal at receptor saturation), and KD (apparent cell binding constant) were then determined using a One site—Specific binding with Hill slope model in GraphPad Prism v 6.0.
For orientation: Flow cytometry measures light scatter and fluorescence of single cells or particles in a stream.
The molecule B1 registered a Bmax of 1480 MFI.

For B2, the Bmax is 1150 MFI.

B3 came in with a Bmax of 1310 MFI.

In the case of B4, the Bmax came out at 1430 MFI.

In turn, B5 yielded a Bmax of 937 MFI.

A further assay has as its target T2, recombinant human AXL extracellular …. As to the kind of experiment: ELISA, antigen coated at 5 µg/ml, mAb 10 µg/ml. How it is done:
(§1) To evaluate the cross-reactivity of the mAb to other members of the TAM receptor tyrosine kinase subfamily, binding of the mAb to rhAXL-ECD, rhMER-ECD, rhTyro-3 and BSA (negative control) was measured by ELISA. 96-w half-area plates (Costar) were coated with 25 μl of rhAXL-ECD, rhMER-ECD, rhTyro-3 or BSA at 5 μg/ml in PBS and incubated overnight at 4° C. Microplates were washed 3 times with PBS, blocked with PBS-BSA 1%, and 25 μl of a 10 μg/ml diluted in PBS-BSA 1% were added and incubated at 37° C., 5% CO₂ for 2 hours. Plates were washed 4 times with PBS-TWEEN™ 20 0.05% and incubated for one hour at 37° C., 5% CO₂ with 25 μl of secondary antibody alkaline phosphatase conjugated F(ab)′2 goat anti-mouse IgG (H+L) (Jackson Immunoresearch) diluted 1/5000 in blocking buffer. After 4 washes with PBS-Tween 20 0.05%, 25 μl of a 1 mg/ml pN PP substrate solution was added and further incubated for one hour at 37° C. OD405 nm measurements were done using a microplate reader (Spectramax 340 PC, Molecular Devices).
(ELISA stands for enzyme-linked immunosorbent assay.)
Turning to B1, the OD405 nm was 2.3 OD405.

Turning to B2, the OD405 nm came out at 1.36 OD405.

For the molecule B3, the OD405 nm is 2.59 OD405.

As for B4, the OD405 nm is 2.4 OD405.

As to B5, the OD405 nm was 1.76 OD405.

In the next assay the target is T3, rhTyro-3. Briefly: ELISA, antigen coated at 5 µg/ml, mAb 10 µg/ml. How it is done: as §1
Consider B1, for which the OD405 nm was 0 OD405.

B2 displayed an OD405 nm of 0 OD405.

Turning to B3, the OD405 nm worked out at 0 OD405.

Regarding B4, the OD405 nm came out at 0 OD405.

As to B5, the OD405 nm was determined as 0 OD405.
